Target: HLA-DQ3.1 (DQA1*0301/DQB1*0310), purified from PF cells (human) (UniProt P01909)
Assay: 125I-peptide inhibition, purified class II

How did the IC50 turn out when lambda rep 12-26 (peptide) was run?
The IC50 was greater than 10 µM.
